Measurements as given in the supplement of paper PMC9170038.

Test system: K4 kissing-loop RNA reporter
Assay: apparent KD of K4 kissing-loop reporter; higher = weaker reporter binding
Settings: Eterna round: R107
Description: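 RNA-MaP round R107: designed RNA switches with theophylline, tryptophan, arginine or FMN aptamers are transcribed on-chip within common flanks. They are titrated with a labelled K4 kissing-loop RNA reporter in RNA-MaP buffer (100 mM Tris pH 7.5, 80 mM KCl, 4 mM MgCl2), without ligand or with the indicated ligand. Median apparent KD per design.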

[1] = input ligand: theophylline 20 uM
[2] = input ligand: tryptophan 2.4 mM
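Also: bound reporter read as fluorescence of individual clusters on recovered sequencing chips by microscopy, with normalized cluster intensities fitted with a binding model.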

CCUAUCUCAUACGAUACCAGUCUACGAUAUUUUAUCGUUGCCAACACCGAGUGAUGUUCGGACCCUUGGCAGCGUAUGGGAUAGG [#03 K4 Theophylline B Exclusion]
apparent KD of K4 kissing-loop reporter (input ligand: FMN 200 uM): 159 nM | apparent KD of K4 kissing-loop reporter (input ligand: arginine 13.2 mM): 129 nM | apparent KD of K4 kissing-loop reporter (input ligand: none): 143 nM | apparent KD of K4 kissing-loop reporter [1]: 138 nM | apparent KD of K4 kissing-loop reporter [2]: 136 nM

AAGUGAUGUUGUAGUGAUGUUGUGAUGUUGCAGGAUAUAUAGUGAUGUAGAAGGGUAUGUGCAGUUUUCAUAUUUGAGUGUUGAU [mkkhmullin]
apparent KD of K4 kissing-loop reporter (input ligand: FMN 200 uM): 85.2 nM | apparent KD of K4 kissing-loop reporter (input ligand: arginine 13.2 mM): 37.6 nM | apparent KD of K4 kissing-loop reporter (input ligand: none): 67.1 nM | apparent KD of K4 kissing-loop reporter [1]: 56.5 nM | apparent KD of K4 kissing-loop reporter [2]: 64.2 nM

UACAAUUUGGCGGCCGCCACUGACCAUAGCCUUCGAUGGCCAGUGAUGUUGGCCUCUGGCUCUAACAGGACCGGGCCAAAUUAUG [Maeste]
apparent KD of K4 kissing-loop reporter (input ligand: FMN 200 uM): 313 nM | apparent KD of K4 kissing-loop reporter (input ligand: arginine 13.2 mM): 216 nM | apparent KD of K4 kissing-loop reporter (input ligand: none): 271 nM | apparent KD of K4 kissing-loop reporter [1]: 245 nM | apparent KD of K4 kissing-loop reporter [2]: 117 nM

GGAUAGGACAGAGGAUAUGGUAGUGAUGUUACCACGAGACAAAGUCUCGAAAAGCUACAAAGUAGCCCAGAAGGCUGUCCUAUCG [FmnBX 25 #SwitchBubble #StaticStem #Palindromic]
apparent KD of K4 kissing-loop reporter (input ligand: FMN 200 uM): 402 nM | apparent KD of K4 kissing-loop reporter (input ligand: arginine 13.2 mM): 116 nM | apparent KD of K4 kissing-loop reporter (input ligand: none): 130 nM | apparent KD of K4 kissing-loop reporter [1]: 114 nM | apparent KD of K4 kissing-loop reporter [2]: 127 nM

CUGACCAACAGCGAUACCAGCGUGGAGUGAUGUUCCCUGGUCCGGGCUGAUGUUCCCUUGCGCCCUUGGCAGCGCAGAAGCAGGA [Exclusion Theophylline B GF 12]
apparent KD of K4 kissing-loop reporter (input ligand: FMN 200 uM): 296 nM | apparent KD of K4 kissing-loop reporter (input ligand: arginine 13.2 mM): 263 nM | apparent KD of K4 kissing-loop reporter (input ligand: none): 351 nM | apparent KD of K4 kissing-loop reporter [1]: 303 nM | apparent KD of K4 kissing-loop reporter [2]: 281 nM

GCUCAGGAGUGAUGUUCCAAGUGAUGUUAACGAGGACCGGUACGGCCGCCACUCGAUACGGCCGGACCGUAGGAUAAACUAGAGC [Same State - Tryptophan A (Freestyle 9)]
apparent KD of K4 kissing-loop reporter (input ligand: FMN 200 uM): 200 nM | apparent KD of K4 kissing-loop reporter (input ligand: arginine 13.2 mM): 171 nM | apparent KD of K4 kissing-loop reporter (input ligand: none): 183 nM | apparent KD of K4 kissing-loop reporter [1]: 313 nM | apparent KD of K4 kissing-loop reporter [2]: 244 nM

AUCUAGAUGCGAAGGAGCGCCUCAACGCGCUAUCUAUGGAGUGAUGUUCCAACGUAUGAGAGGCAGGUAGGUCGCGCAUCUAGAA [Arg B Ex t1]
apparent KD of K4 kissing-loop reporter (input ligand: FMN 200 uM): 129 nM | apparent KD of K4 kissing-loop reporter (input ligand: arginine 13.2 mM): 113 nM | apparent KD of K4 kissing-loop reporter (input ligand: none): 132 nM | apparent KD of K4 kissing-loop reporter [1]: 117 nM | apparent KD of K4 kissing-loop reporter [2]: 115 nM

UGUAUGUGAUUUGAUACCAGACCAUCUUGUGAAUGAUGAGUGAUGUUUAUUAUGGUUUGGGUCCCUUGGCAGCAAAUCGCAUACU [KL-SSTheoB25]
apparent KD of K4 kissing-loop reporter (input ligand: FMN 200 uM): 926 nM | apparent KD of K4 kissing-loop reporter (input ligand: arginine 13.2 mM): 717 nM | apparent KD of K4 kissing-loop reporter (input ligand: none): 976 nM | apparent KD of K4 kissing-loop reporter [1]: 781 nM | apparent KD of K4 kissing-loop reporter [2]: 803 nM

AUUUAGACGAGUGAUGUUCGUGUUAUUACAGAGGAUAUGCGUGAUUGCAGAAGGCUGUAUUUAUAUAUGUUAUGUGGUUUUAAAA [whbob_Ex_FMNA__2th186]
apparent KD of K4 kissing-loop reporter (input ligand: FMN 200 uM): 79.7 nM | apparent KD of K4 kissing-loop reporter (input ligand: arginine 13.2 mM): 102 nM | apparent KD of K4 kissing-loop reporter (input ligand: none): 90.7 nM | apparent KD of K4 kissing-loop reporter [1]: 102 nM | apparent KD of K4 kissing-loop reporter [2]: 69.9 nM

ACGGGCGGCUGAAGGAGCGGGCGGGCCCGAGUGAUGUUCGGGUGGGCCGUGAGGUCCGGAGCCCAGGUAGGUCGCGGUUCCGCCU [#2 Same State - Arginine B Attempt #14 (HarryS)]
apparent KD of K4 kissing-loop reporter (input ligand: FMN 200 uM): 157 nM | apparent KD of K4 kissing-loop reporter (input ligand: arginine 13.2 mM): 119 nM | apparent KD of K4 kissing-loop reporter (input ligand: none): 152 nM | apparent KD of K4 kissing-loop reporter [1]: 197 nM | apparent KD of K4 kissing-loop reporter [2]: 181 nM

GCUAUGGUAGGAAGGAGCGCUGCGUUGUUUUUACGAGUGAUGUUCGGAAGCGGCGUGUUAAAGCAGGUAGGUCGCCUACUAUAGC [Arginine B K4 24]
apparent KD of K4 kissing-loop reporter (input ligand: FMN 200 uM): 162 nM | apparent KD of K4 kissing-loop reporter (input ligand: arginine 13.2 mM): 135 nM | apparent KD of K4 kissing-loop reporter (input ligand: none): 184 nM | apparent KD of K4 kissing-loop reporter [1]: 172 nM | apparent KD of K4 kissing-loop reporter [2]: 154 nM

ACUGGAAUUGUACUCCAGUGAUGUUGGAGGCAGGAUAUCCAGUAAAGGAGAAGGGCCAUCGCGCUAUUUGGCCGCAGGCGGCCAG [Acela]
apparent KD of K4 kissing-loop reporter (input ligand: FMN 200 uM): 147 nM | apparent KD of K4 kissing-loop reporter (input ligand: arginine 13.2 mM): 113 nM | apparent KD of K4 kissing-loop reporter (input ligand: none): 128 nM | apparent KD of K4 kissing-loop reporter [1]: 177 nM | apparent KD of K4 kissing-loop reporter [2]: 150 nM

AUAGAGAAGUGGCACCCUCACUAAAACAGUCGAGGACCGGUACGGCCGCCACUCGCGCGCUUUAGUGAUGUUAAAGAUGUGAAAA
apparent KD of K4 kissing-loop reporter (input ligand: FMN 200 uM): 223 nM | apparent KD of K4 kissing-loop reporter (input ligand: arginine 13.2 mM): 209 nM | apparent KD of K4 kissing-loop reporter (input ligand: none): 223 nM | apparent KD of K4 kissing-loop reporter [1]: 508 nM | apparent KD of K4 kissing-loop reporter [2]: 215 nM

ACACUUUACGUAGGAUAUGCGACGAGUGAUGUUCGUCAGGCGGCCUUAGAUUAAACAAGCCGCCUAGCAGAAGGACGGGCAGUGU [Qumatiri]
apparent KD of K4 kissing-loop reporter (input ligand: FMN 200 uM): 133 nM | apparent KD of K4 kissing-loop reporter (input ligand: arginine 13.2 mM): 155 nM | apparent KD of K4 kissing-loop reporter (input ligand: none): 201 nM | apparent KD of K4 kissing-loop reporter [1]: 154 nM | apparent KD of K4 kissing-loop reporter [2]: 159 nM

AGACAUAUGACUGUAUGUUUCCAAGGUGUCAAGGAUAUAGUAAACACUAGAAGGUGAGAUCACAGGAGUGAUGUUCGAAAAUGGA [theeternabot_sameState_KL_FMN_A_14]
apparent KD of K4 kissing-loop reporter (input ligand: FMN 200 uM): 419 nM | apparent KD of K4 kissing-loop reporter (input ligand: arginine 13.2 mM): 208 nM | apparent KD of K4 kissing-loop reporter (input ligand: none): 237 nM | apparent KD of K4 kissing-loop reporter [1]: 233 nM | apparent KD of K4 kissing-loop reporter [2]: 248 nM

UUGGAGUGAUGUUCCAUAUCUUGAGCGGAAGGAGCGGCAAAAGUGCCAGGUAGGUCGCCGCAGAAGGUACCAGUGAUGUUGGAAA [Same State Arginine A GF 3]
apparent KD of K4 kissing-loop reporter (input ligand: FMN 200 uM): 132 nM | apparent KD of K4 kissing-loop reporter (input ligand: arginine 13.2 mM): 152 nM | apparent KD of K4 kissing-loop reporter (input ligand: none): 155 nM | apparent KD of K4 kissing-loop reporter [1]: 156 nM | apparent KD of K4 kissing-loop reporter [2]: 109 nM

CCAUCGCUAUUCGAUACCAGUCUUUUUUAUUUAUAAAAUCUGCAAAGGAGUGAUGUUCCAGACCCUUGGCAGCGAAUAGUGAUGG [Theophylline B K4 3]
apparent KD of K4 kissing-loop reporter (input ligand: FMN 200 uM): 401 nM | apparent KD of K4 kissing-loop reporter (input ligand: arginine 13.2 mM): 441 nM | apparent KD of K4 kissing-loop reporter (input ligand: none): 464 nM | apparent KD of K4 kissing-loop reporter [1]: 570 nM | apparent KD of K4 kissing-loop reporter [2]: 459 nM

AUGCGCGUGCGAUGUAAAUCGCACGCGCAUCGAGGACCGGUACGGCCGCCACUCGCUCGCGCCGAGUGAUGUUCGGCCGGCGAAC [#2 Same State - Tryptophan A Attempt #5 (HarryS)]
apparent KD of K4 kissing-loop reporter (input ligand: FMN 200 uM): 442 nM | apparent KD of K4 kissing-loop reporter (input ligand: arginine 13.2 mM): 278 nM | apparent KD of K4 kissing-loop reporter (input ligand: none): 527 nM | apparent KD of K4 kissing-loop reporter [1]: 454 nM | apparent KD of K4 kissing-loop reporter [2]: 476 nM

UAUUAAUUGUCAGGAUAUCGUAUUCGAGUGAUGUUCGUAUAUCGACGAUAGUCGAUAUUAUUUAUACGAGAAGGGACAUUAUUUA [JR_SSFMNB_Sub005]
apparent KD of K4 kissing-loop reporter (input ligand: FMN 200 uM): 292 nM | apparent KD of K4 kissing-loop reporter (input ligand: arginine 13.2 mM): 260 nM | apparent KD of K4 kissing-loop reporter (input ligand: none): 330 nM | apparent KD of K4 kissing-loop reporter [1]: 274 nM | apparent KD of K4 kissing-loop reporter [2]: 285 nM
